In the RNAGym collection of RNA variant scans (doi:10.7554/elife.80360):

B1: HDV Ribozyme (parent)
chain: GGCCGGCAUGGUCCCAGCCUCCUCGCUGGCGCCGGCUGGGCAACAUUCCGAGGGGACCGUCCCCUCGGUAAUGGCGAAUGGGACCCA

Variants of: B1
Test: self-cleavage, relative activity (ratio to wild type); higher = more cleavage; co-transcriptional
Work on C3G C66U yielded a self-cleavage of 0.715. Work on C3G C66G yielded a self-cleavage of 0.761. For C3U C21G, the self-cleavage was 0.0723. Variant C3G G39U has a self-cleavage of 0.0989. C3U G35U gave a self-cleavage of 0.649. Variant C3U G35A has a self-cleavage of 0.694. Work on C3G C19A yielded a self-cleavage of 0.0594. Work on C3A U79C yielded a self-cleavage of 0.106. C3A U79A showed a self-cleavage of 0.175. With C3A U79G the self-cleavage was 0.175. Work on C3A U47C yielded a self-cleavage of 0.422. For C3G C30A, the self-cleavage was 0.0639. For C3G C30G, the self-cleavage was 0.0594. In the case of C3A C75A, the self-cleavage is reported as 0.0784. Work on C3U C61A yielded a self-cleavage of 0.801. With C3G A56U the self-cleavage was 0.769. C3U C15A gave a self-cleavage of 0.481. C3U A56C gave a self-cleavage of 0.675. With C3U C64G the self-cleavage was 0.915. In the case of C3A G40U, the self-cleavage is reported as 0.256. With C3A G40C the self-cleavage was 0.0923. C3G G74A showed a self-cleavage of 0.114. Work on C3G G5U yielded a self-cleavage of 0.119. Variant C3G G31U has a self-cleavage of 0.0739. With C3A G68C the self-cleavage was 0.363. C3A G68U showed a self-cleavage of 0.465. C3A G80A gave a self-cleavage of 0.175. For C3U C75U, the self-cleavage was 0.197. With C3U C75G the self-cleavage was 0.104. In the case of C3U C75A, the self-cleavage is reported as 0.101. C3A U23G showed a self-cleavage of 0.352. For C3G G82U, the self-cleavage was 0.166. With C3G G82A the self-cleavage was 0.19. C3G C75A gave a self-cleavage of 0.119. With C3G G40U the self-cleavage was 0.442. Work on C3U G10A yielded a self-cleavage of 0.513. C3U G6C gave a self-cleavage of 0. C3G A8C gave a self-cleavage of 0.293. Work on C3G G55U yielded a self-cleavage of 0.821. C3G G55A gave a self-cleavage of 0.76. C3G U27A showed a self-cleavage of 0.308. Variant C3A C84U has a self-cleavage of 0.157. With C3G G10C the self-cleavage was 0.151. With C3A G59A the self-cleavage was 0.739. C3A G59C gave a self-cleavage of 0.668. Variant C3U C26U has a self-cleavage of 0.65. Variant C3U A87G has a self-cleavage of 0.752. With C3U G34C the self-cleavage was 0.182. Work on C3U G34A yielded a self-cleavage of 0.106. In the case of C3A C66A, the self-cleavage is reported as 0.473. In the case of C3A G17C, the self-cleavage is reported as 0.0329. Variant C3U C66U has a self-cleavage of 0.753. C3U G39A showed a self-cleavage of 0.21. Work on C3G C57A yielded a self-cleavage of 0.802. For C3G C84A, the self-cleavage was 0.564. For C3A C58U, the self-cleavage was 0.596. In the case of C3G G80C, the self-cleavage is reported as 0.0665. For C3G G80A, the self-cleavage was 0.0911. C3A U9C gave a self-cleavage of 0.381. In the case of C3G U9C, the self-cleavage is reported as 0.554. In the case of C3G U23C, the self-cleavage is reported as 0.48. Work on C3A C61G yielded a self-cleavage of 0.512. C3A G39U showed a self-cleavage of 0.0777. For C3G A16G, the self-cleavage was 0.408. Work on C3G C44A yielded a self-cleavage of 0.312. Variant C3A G5A has a self-cleavage of 0.0332. Variant C3A G67A has a self-cleavage of 0.462. C3G G68U showed a self-cleavage of 0.383. For C3G G68C, the self-cleavage was 0.531. C3G G53C showed a self-cleavage of 0.609. Work on C3A U60G yielded a self-cleavage of 0.471. For C3G U46G, the self-cleavage was 0.248. Work on C3U G11C yielded a self-cleavage of 0.191. For C3U G11A, the self-cleavage was 0.262. With C3U C57U the self-cleavage was 0.794. C3U C57A showed a self-cleavage of 0.9. C3U G25U gave a self-cleavage of 0.0175. With C3U G25A the self-cleavage was 0.138. C3U A45U gave a self-cleavage of 0.432. With C3A U72G the self-cleavage was 0.0712. Variant C3A U72C has a self-cleavage of 0.198. With C3G C36G the self-cleavage was 0.0343. Variant C3G A83U has a self-cleavage of 0.0678. With C3G C58A the self-cleavage was 0.842. C3G C58U gave a self-cleavage of 0.709. In the case of C3A G6A, the self-cleavage is reported as 0.0931. In the case of C3A G6C, the self-cleavage is reported as 0.0282. With C3G A71U the self-cleavage was 0.502. Variant C3G A71G has a self-cleavage of 0.631. C3G G6C gave a self-cleavage of 0.0475. Variant C3U C63A has a self-cleavage of 0.909. In the case of C3G C21U, the self-cleavage is reported as 0.0326. For C3U C32U, the self-cleavage was 0.338. In the case of C3G A77C, the self-cleavage is reported as 0.233. With C3U A77U the self-cleavage was 0.354. C3U A77G showed a self-cleavage of 0.739. Work on C3G C85G yielded a self-cleavage of 0.774. Work on C3U C44G yielded a self-cleavage of 0.354. With C3U C44U the self-cleavage was 0.378. C3U C41U gave a self-cleavage of 0.726. Variant C3A G11U has a self-cleavage of 0.138. C3U G29A showed a self-cleavage of 0.0154. C3A U20C gave a self-cleavage of 0.108. C3U A42C gave a self-cleavage of 0.181. With C3U G31C the self-cleavage was 0.168. With C3A G25U the self-cleavage was 0.0631. C3G A78G gave a self-cleavage of 0.151. C3A C63A gave a self-cleavage of 0.492. C3U A83U showed a self-cleavage of 0.17. In the case of C3G A51G, the self-cleavage is reported as 0.746. For C3A G54C, the self-cleavage was 0.34. Variant C3G G34C has a self-cleavage of 0.192. Variant C3G G34A has a self-cleavage of 0.229. C3G G38C gave a self-cleavage of 0.192. With C3G G38A the self-cleavage was 0.0386. C3G U60G gave a self-cleavage of 0.773. For C3G U60C, the self-cleavage was 0.748. C3G U60A gave a self-cleavage of 0.772. Work on C3G G35A yielded a self-cleavage of 1.08. In the case of C3A G34A, the self-cleavage is reported as 0.123. C3G U20C gave a self-cleavage of 0.0489. For C3A U46A, the self-cleavage was 0.148. C3U C24U gave a self-cleavage of 0.679. C3U C24G gave a self-cleavage of 0.0782. For C3G G29A, the self-cleavage was 0.106. C3U C84U gave a self-cleavage of 0.808. In the case of C3G C13U, the self-cleavage is reported as 0.229. C3G G50U showed a self-cleavage of 0.665. Work on C3G U72G yielded a self-cleavage of 0.345. With C3G G25U the self-cleavage was 0.0277. In the case of C3G A87U, the self-cleavage is reported as 0.875. Variant C3G C14A has a self-cleavage of 0.383. C3G G73C gave a self-cleavage of 0.272. Work on C3A G52U yielded a self-cleavage of 0.404. C3A G74U gave a self-cleavage of 0.156. With C3A G74A the self-cleavage was 0.0326. C3U C19A gave a self-cleavage of 0.0573. C3G G54U gave a self-cleavage of 0.702. With C3U G28C the self-cleavage was 0.0449. C3A G53A gave a self-cleavage of 0.519. With C3U C36A the self-cleavage was 0.132. C3U C48U gave a self-cleavage of 0.804. C3G U69C showed a self-cleavage of 0.653. In the case of C3U C49U, the self-cleavage is reported as 0.762. For C3A U12A, the self-cleavage was 0.0848. Work on C3A U12G yielded a self-cleavage of 0.241. C3A G31A gave a self-cleavage of 0.0507. Variant C3A G31C has a self-cleavage of 0.0166. C3A G50A showed a self-cleavage of 0.545. C3A G50U showed a self-cleavage of 0.754. C3U A16G gave a self-cleavage of 0.675. For C3A G55A, the self-cleavage was 0.705. In the case of C3A C64G, the self-cleavage is reported as 0.32. For C3G U37C, the self-cleavage was 1.08. For C3A G28A, the self-cleavage was 0.0138. With C3A G28U the self-cleavage was 0.0536. Variant C3G C61U has a self-cleavage of 0.729. C3G C61A showed a self-cleavage of 0.87. For C3U C33A, the self-cleavage was 0.123. C3U C33G gave a self-cleavage of 0.0282. For C3A C85A, the self-cleavage was 0.646. C3U C85U gave a self-cleavage of 0.626. Work on C3U C85A yielded a self-cleavage of 0.646. C3A U69C gave a self-cleavage of 0.665. In the case of C3A U65C, the self-cleavage is reported as 0.602. Variant C3A U65A has a self-cleavage of 0.641. Work on C3G G11U yielded a self-cleavage of 0.0683.
